Data published in publication PMC10243088.

Columns and labels:
[1] = target: ferroportin (human (endogenous in HEK 293 and iPSC-derived ECs)) (UniProt Q9NP59)
[2] = target: ferroportin (human (endogenous in HEK 293 and iPSC-derived ECs)) (UniProt Q9NP59); remark: listed apart in the source
[3] = target: ferroportin (human (endogenous in HEK 293 and iPSC-derived ECs)) (UniProt Q9NP59); remark: listed apart in the source

Chain of UniProt Q9NP59 (Q9NP59 whole entry): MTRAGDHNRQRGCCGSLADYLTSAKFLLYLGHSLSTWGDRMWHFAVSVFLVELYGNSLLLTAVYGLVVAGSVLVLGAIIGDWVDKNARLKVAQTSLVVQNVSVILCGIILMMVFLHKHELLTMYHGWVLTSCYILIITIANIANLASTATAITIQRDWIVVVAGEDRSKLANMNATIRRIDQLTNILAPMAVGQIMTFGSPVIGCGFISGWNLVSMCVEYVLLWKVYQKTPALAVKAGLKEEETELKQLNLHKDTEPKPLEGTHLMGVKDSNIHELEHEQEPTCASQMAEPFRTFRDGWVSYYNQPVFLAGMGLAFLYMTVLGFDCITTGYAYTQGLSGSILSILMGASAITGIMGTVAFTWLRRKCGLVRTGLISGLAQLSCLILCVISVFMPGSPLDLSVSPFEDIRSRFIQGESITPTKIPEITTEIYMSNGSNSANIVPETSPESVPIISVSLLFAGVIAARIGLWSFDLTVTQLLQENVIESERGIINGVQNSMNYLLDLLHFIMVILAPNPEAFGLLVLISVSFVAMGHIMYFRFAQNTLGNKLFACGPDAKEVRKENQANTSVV

membrane Fpn in HEK 293 cells with 500 nM hepcidin, 5-60 min (membrane protein isolation, immunoblot), compared to holo-Tf treatment [1] [%] | membrane Fpn in HEK 293 cells with 0.25 μM holo-Tf, 5-60 min (membrane protein isolation, immunoblot), compared to control [1] [%] | Fpn protein level in iPSC-derived ECs with 0.25 μM holo-Tf over time, intervals of 1 h up to 5 h (immunoblot) [2] [%] | Fpn protein level in iPSC-derived ECs after 8 h with increasing concentrations of holo-Tf in the basal chamber (immunoblot), from 0.1 μM [3] [%] | Substance
70 | – | – | – | hepcidin (peptide)
– | 20 | 50 | 50 | holo-transferrin (iron bound transferrin) (from UniProt P02787 20-698) (natural protein)
